Laboratory results: patent US20250042969A1, “ANTIGEN DISCOVERY FOR T CELL RECEPTORS ISOLATED FROM PATIENT TUMORS RECOGNIZING WILD-TYPE ANTIGENS AND POTENT PEPTIDE MIMOTOPES” (The Board of Trustees of the Leland Stanford Junior …, priority 2017, published 2025)
Numbering of substitutions follows the chain as printed.

B1: TCR 2A: TIL TCR of Patient A, TRAV19/TRBV10-1; alpha chain SEQ ID NO: 258, beta chain SEQ ID NO: 259 (protein)
alpha: QKVTQAQTEISVVEKEDVTLDCVYETRDTTYYLFWYKQPPSGELVFLIRRNSFDEQNEISGRYSWNFQKSTSSFNFTITASQVVDSAVYFCALSEARGGATNKLIFGTGTLLAVQPNIQNPDPAVYQLRDSKSSDKSVCLFTDFDSQTNVSQSKDSDVYITDKCVLDMRSMDFKSNSAVAWSNKSDFACANAFNNSIIPEDTFFPSPESS
beta: EITQSPRHKITETGRQVTLACHQTWNHNNMFWYRQDLGHGLRLIHYSYGVQDTNKGEVSDGYSVSRSNTEDLPLTLESAASSQTSVYFCASSRDTVNTEAFFGQGTRLTVVEDLKNVFPPEVAVFEPSEAEISHTQKATLVCLATGFYPDHVELSWWVNGKEVHSGVCTDPQPLKEQPALNDSRYALSSRLRVSATFWQNPRNHFRCQVQFYGLSENDEWTQDRAKPVTQIVSAEAWGRAD
B2: TCR 3B: TIL TCR of Patient B, TRAV19/TRBV10-1; alpha chain SEQ ID NO: 258, beta chain SEQ ID NO: 260 (protein)
alpha: B1 alpha
beta: B1 beta with T95F, N97S, T98N, A100Q, F101Y, Q104P, V111T

What was measured:
[1] = system: peptide-HLA-A*02:01 yeast-display library; assay: Selection of the peptide-HLA-A*02:01 yeast-display library by multimerized TCR with deep sequencing; type: binding, human; details: for cross-reactivity (breadth of tolerated amino acids per peptide position): round 3, accounting for peptide enrichment
[2] = molecular target: T1, MMDFFNAQM-HLA-A*02:01 (Homo sapiens, UniProt P04439+P26368, D140Y/D185E/D98H/E176V/E277Q/G131W/G231S/I119V/I121R/I166T/I218V/N151K/N90K/P208A/P217A/Q86G/Q94H/R138H/R169H); assay: Surface plasmon resonance of TCR binding to immobilized […]-HLA-A*02:01; details: BIAcore T100, 25° C., equilibrium data, 1:1 binding model
T1 construct: HLA-A*02:01 (1-275); BirA biotinylation site (implied by BirA biotinylation); made in house
Procedure: Inclusion bodies containing the separate proteins were dissolved in 8 M urea, 40 mM Tris-HCl pH 8.0, 10 mM EDTA, and 10 mM DTT. […] After 72 hours at 4° C., the protein was dialyzed in 10 L of 10 mM Tris-HCl and purified via weak ion exchange using a DEAE cellulose column. The protein elution was purified using size exclusion chromatography on a Superdex 200 column and ion-exchange chromatography on a 5/50 Mono Q column (GE Healthcare). Protein was biotinylated overnight with birA ligase, 100 μM biotin, 40 mM Bicine pH 8.3, 10 mM ATP, and 10 mM Magnesium Acetate at 4° C. after buffer-exchange to 1×HBS pH 7.2 in a 30 kDa filter (Millipore) before being run on a size exclusion Superdex 200 column.
A different flow cell was immobilized with non-relevant peptide-HLA-A2 to serve as blank control. […] Injections of TCR were stopped after 60 s to allow sufficient time for SPR signals to reach plateau. The dissociation constant (KD) was obtained by fitting equilibrium data with a 1:1 binding model using BIAcore evaluation software.

Molecule | enrichment of peptides / HLA-linked epitope tag from the library ([1]; HLA-A*02:01 library) | cross-reactivity (breadth of tolerated amino acids per peptide position) [1] | affinity (dissociation constant, KD) [2] | TCR tetramer staining of selected library yeast ([1]; 400 nM TCR tetramer, over rounds of selection) | unique peptides selected at round 3 ([1]; HLA-A*02:01 library, all four peptide lengths, deep sequencing)
B1 | enriched peptides from the library | more cross-reactive |  |  | 
B2 | enriched peptides from the library | relatively specific | could not be determined | tetramer stained yeast gradually increased across the rounds of selection | 66
